These results are taken from article PMC6682550.

For this assay, the target named is 6xHis-tag M1 protein from Influenza A/FPV/Rostock/34, labelled with Alexa Fluor 488 (M1-Alexa488) (Influenza A virus A/FPV/Rostock/34) (UniProt P03487). The experiment in a line: […], pH 7.4, NaCl ~45 mM; […].

As usually defined, the stoichiometry N is the number of molecules, sites or subunits per partner or assembly. Substance “6xHis-tag M1 protein from Influenza A/FPV/Rostock/34, labelled with Alexa Fluor 488 (M1-Alexa488) (from UniProt P03487 1-252) (natural protein)” registered a stoichiometry N of 15.
